In experiment [1] the target is T1, human interleukin-7 receptor (IL-7R) (human, UniProt P16871 21-459).
T1 construct: whole, on cells; Endogenous receptor on NALM6 and REH cells in flow cytometry; also called IL-7Ralpha; IL-7 Ralpha
T1 sequence (looked up): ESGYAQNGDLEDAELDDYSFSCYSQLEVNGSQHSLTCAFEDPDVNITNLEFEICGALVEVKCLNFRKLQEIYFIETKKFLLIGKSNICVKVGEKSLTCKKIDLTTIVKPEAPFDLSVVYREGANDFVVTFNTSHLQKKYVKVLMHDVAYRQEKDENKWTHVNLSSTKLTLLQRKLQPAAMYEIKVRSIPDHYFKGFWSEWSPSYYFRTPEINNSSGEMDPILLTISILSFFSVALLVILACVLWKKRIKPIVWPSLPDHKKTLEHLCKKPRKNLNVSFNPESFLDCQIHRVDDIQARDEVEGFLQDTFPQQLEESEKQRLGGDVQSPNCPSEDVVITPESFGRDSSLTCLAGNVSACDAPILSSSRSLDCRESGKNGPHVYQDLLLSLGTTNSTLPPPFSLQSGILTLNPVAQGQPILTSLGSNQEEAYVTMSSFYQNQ
The experiment can be described thus: flow cytometry on NALM6 and REH cells (FIG. 2). (A flow cytometer gives signals particle by particle.)

The target of experiment [2] is T1, human interleukin-7 receptor (IL-7R). The experiment can be described thus: flow cytometry on NALM6 and REH cells (FIG. 5, human chimeric clone).

B1: clone 24 chimeric antibody in the IgG1 format (antibody)
heavy: not shown
light: QIVLTQSPAIMSSFPGEKVTMTCSASSSVNYIHWYQQKSGTSPKRLIYDTSKLASGVPPRFSGSGSGTSYSLTISSMEAEDAATYYCQQWSRNPLTFGAGTKLELRRTVAAPSVFIFPPSDEQLKSGTASVVCLLNNFYPREAKVQWKVDNALQSGNSQESVTEQDSKDSTYSLSSTLTLSKADYEKHKVYACEVTHQGLSSPVTKSFNRGEC
notes: also called anti-human IL-7R antibody clone 24 (IgG1 format)
With B1, the binding result in experiment [1] was “binds”.

B2: clone 24 chimeric antibody in the IgG4 format (antibody)
heavy: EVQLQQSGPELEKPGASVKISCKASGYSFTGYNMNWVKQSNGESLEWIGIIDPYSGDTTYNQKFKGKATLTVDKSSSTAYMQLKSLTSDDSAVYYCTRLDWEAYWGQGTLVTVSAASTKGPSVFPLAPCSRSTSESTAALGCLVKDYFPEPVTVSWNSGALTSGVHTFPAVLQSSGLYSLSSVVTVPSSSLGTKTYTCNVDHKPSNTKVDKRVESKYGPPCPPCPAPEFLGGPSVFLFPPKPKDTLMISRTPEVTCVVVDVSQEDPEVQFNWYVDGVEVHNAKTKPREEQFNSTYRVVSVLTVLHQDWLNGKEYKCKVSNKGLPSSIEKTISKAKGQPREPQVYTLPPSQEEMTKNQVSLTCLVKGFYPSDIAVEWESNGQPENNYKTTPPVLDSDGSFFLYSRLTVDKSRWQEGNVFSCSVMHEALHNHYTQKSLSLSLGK
light: B1 light
notes: also called anti-human IL-7R antibody clone 24 (IgG4 format)
For the molecule B2, the binding result in experiment [1] is on record as “binds”.

B3: clone 577 chimeric antibody in the IgG1 format (antibody)
heavy: not shown
light: ETTVTQSPASLSMAMGEKVTIRCMTSTDINDDMNWYQQKPGEPPKLLISEGNTLRPGVPSRFSSSGYSTDFFFTIEYMLSEDVADYFCLQTDNLPLTFGAGTKLELRRTVAAPSVFIFPPSDEQLKSGTASVVCLLNNFYPREAKVQWKVDNALQSGNSQESVTEQDSKDSTYSLSSTLTLSKADYEKHKVYACEVTHQGLSSPVTKSFNRGEC
As to B3, the binding result in experiment [2] was “binds”.

B4: clone 577 chimeric antibody in the IgG4 format (antibody)
heavy: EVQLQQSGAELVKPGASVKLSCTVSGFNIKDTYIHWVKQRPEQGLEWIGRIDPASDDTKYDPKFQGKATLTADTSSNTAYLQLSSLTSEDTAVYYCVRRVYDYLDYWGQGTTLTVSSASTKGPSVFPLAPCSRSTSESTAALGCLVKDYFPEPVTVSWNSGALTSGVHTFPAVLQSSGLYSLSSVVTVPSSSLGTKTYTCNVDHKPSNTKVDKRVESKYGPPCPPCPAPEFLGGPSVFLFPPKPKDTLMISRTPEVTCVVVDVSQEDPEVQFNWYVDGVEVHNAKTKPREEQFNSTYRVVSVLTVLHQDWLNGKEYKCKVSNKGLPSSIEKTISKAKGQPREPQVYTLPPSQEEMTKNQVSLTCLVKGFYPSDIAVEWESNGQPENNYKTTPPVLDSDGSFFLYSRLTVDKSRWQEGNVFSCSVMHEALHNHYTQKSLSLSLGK
light: B3 light
As to B4, the binding result in experiment [1] was “binds”.

B5: clone 2D5 chimeric antibody in the IgG1 format (antibody)
heavy: not shown
light: DIVMTQSHKFMSTSVGDRVSITCKASQDVGIVVAWYQQKPGQSPKLLIYWASTRHTGVPDRFTGSGSGTDFTLTISNVQSEDLADYFCQQYSSYPLTFGAGTKLELRRTVAAPSVFIFPPSDEQLKSGTASVVCLLNNFYPREAKVQWKVDNALQSGNSQESVTEQDSKDSTYSLSSTLTLSKADYEKHKVYACEVTHQGLSSPVTKSFNRGEC
notes: also called anti-human IL-7R antibody clone 2D5 (IgG1 format)
For the molecule B5, the binding result in experiment [1] is “binds”.

B6: clone 2D5 chimeric antibody in the IgG4 format (antibody)
heavy: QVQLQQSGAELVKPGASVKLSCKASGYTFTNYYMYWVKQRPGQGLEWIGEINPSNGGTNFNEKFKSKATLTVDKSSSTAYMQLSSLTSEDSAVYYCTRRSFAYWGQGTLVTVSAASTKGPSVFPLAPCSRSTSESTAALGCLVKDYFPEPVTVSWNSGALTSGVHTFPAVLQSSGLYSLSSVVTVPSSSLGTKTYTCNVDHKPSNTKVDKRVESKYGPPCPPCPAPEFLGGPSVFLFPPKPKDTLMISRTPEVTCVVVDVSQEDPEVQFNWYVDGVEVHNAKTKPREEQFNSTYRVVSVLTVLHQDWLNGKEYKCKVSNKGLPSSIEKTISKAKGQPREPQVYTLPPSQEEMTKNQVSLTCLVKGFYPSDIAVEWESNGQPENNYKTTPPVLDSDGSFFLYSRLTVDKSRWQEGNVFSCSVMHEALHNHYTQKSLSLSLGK
light: B5 light
notes: also called anti-human IL-7R antibody clone 2D5 (IgG4 format)
Consider B6, for which, in experiment [1], the binding result is reported as “binds”.

These data come from patent publication EP4800035A1 (National Cancer Center, dated 2025).
